Test results taken from patent publication US20130171677A1 (BOARD OF SUPERVISORS OF THE UNIVERSITY OF LOUISIANA SYSTEM, published 2013).

Target: the molecule itself
Assay: size exclusion chromatography of purified recombinant TeCpcS (complex 53.0 kDa against ~24.0 kDa calculated for HT-TeCpcS)
Protocol: In order to determine the molecular mass of TeCpcS in its native state, the purified, recombinant TeCpcS was subjected to size exclusion chromatography. The molecular mass of this complex was calculated to be 53.0 kDa, and the calculated molecular mass of HT-TeCpcS is ˜24.0 kDa.

B1: Bilin lyase CpcS from Thermosynechococcus elongatus BP1 (TeCpcS), His-tagged (enzyme)
chain: MCIGMDIRDFFAQSAGRWFSQRTSHHLAFKQTESGKSQLTIELLSVDDPAVIALCQQYDMDPAWAVCGARVSWDGTMEWDNEKHEGSTVLVPIMDQGSRMEGKLLREMGYAEKAPVAGRFSMGSDGALTLITEYETIYSEERLWFASPNLRLRTSILKRFGGFSMASFCSEIRLGVTQPANS
notes: also called HT-TeCpcS; CpcS-III; not shown: C-terminal His-tag from the pET22c construct used for crystallization and size-exclusion chromatography
binding result: binds
